# From US20240034774A1 (Gilead, published 2024)
# Numbering of substitutions follows the chain as printed.
# B1: 1.35.36-1 (antibody, human IgG1, kappa)
# heavy: QVQLVQSGAEVKKPGASVRVSCKASGYNIRDYFMHWWRQAPGQGLQWVGWINPKTGQPNNPRQFQGRVTMTRHASWDFDTFSFYMDLSRLRSDDTATYFCARQRTDYWDFDVWGQGTMVTVSSASTKGPSVFPLAPSSKSTSGGTAALGCLVKDYFPEPVTVSWNSGALTSGVHTFPAVLQSSGLYSLSSVVTVPSSSLGTQTYICNVNHKPSNTKVDKKVEPKSCDKTHTCPPCPAPELLAGPDVFLFPPKPKDTLMISRTPEVTCVVVDVSHEDPEVKFNWYVDGVEVHNAKTKPREEQYNSTYRVVSVLTVLHQDWLNGKEYKCKVSNKALPLPEEKTISKAKGQPREPQVYTLPPSREEMTKNQVSLTCLVKGFYPSDIAVEWESNGQPENNYKTTPPVLDSDGSFFLYSKLTVDKSRWQQGNVFSCSVLHEALHSHYTQKSLSLSPGK
# light: DIQMTQSPSSLSASVGDRVTITCQANGYLNWYQQKPGKAPKLLIYDGSNLETGVPSRFSGSRWGQEYTLTISSLQPEDIATYFCQVYEFVTPGTNLDIKRTVAAPSVFIFPPSDEQLKSGTASVVCLLNNFYPREAKVQWKVDNALQSGNSQESVTEQDSKDSTYSLSSTLTLSKADYEKHKVYACEVTHQGLSSPVTKSFNRGEC
# B2: 1.36.36-1 (antibody, human IgG1, kappa)
# heavy: B1 heavy with F83A
# light: B1 light
# B3: Antibody A-3 (antibody, human IgG1, kappa)
# heavy: QVQLLQSGAAVTKPGASVRVSCEASGYNIRDYFIHWWRQAPGQGLQWVGWINPKTGQPNNPRQFQGRVSLTRHASWDFDTFSFYMDLKALRSDDTAVYFCARQRSDYWDFDVWGSGTQVTVSSASTKGPSVFPLAPSSKSTSGGTAALGCLVKDYFPEPVTVSWNSGALTSGVHTFPAVLQSSGLYSLSSVVTVPSSSLGTQTYICNVNHKPSNTKVDKKVEPKSCDKTHTCPPCPAPELLGGPDVFLFPPKPKDTLMISRTPEVTCVVVDVSHEDPEVKFNWYVDGVEVHNAKTKPREEQYNSTYRVVSVLTVLHQDWLNGKEYKCKVSNKALPAPEEKTISKAKGQPREPQVYTLPPSREEMTKNQVSLTCLVKGFYPSDIAVEWESNGQPENNYKTTPPVLDSDGSFFLYSKLTVDKSRWQQGNVFSCSVLHEALHSHYTQKSLSLSPGK
# light: DIQMTQSPSSLSASVGDTVTITCQANGYLNWYQQRRGKAPKLLIYDGSKLERGVPSRFSGRRWGQEYNLTINNLQPEDIATYFCQVYEFVVPGTRLDLKRTVAAPSVFIFPPSDEQLKSGTASVVCLLNNFYPREAKVQWKVDNALQSGNSQESVTEQDSKDSTYSLSSTLTLSKADYEKHKVYACEVTHQGLSSPVTKSFNRGEC
# B4: 1.34.36-1 (antibody, human IgG1, kappa)
# heavy: B1 heavy with M34I, M70L, S88K, R89A, T97V, Q115S, M118Q
# light: B1 light
# B5: Antibody A-2 (antibody, human IgG1, kappa)
# heavy: B3 heavy with G242A, A336L, L434M, S440N
# light: B3 light
# B6: 1.31.36-1 (antibody, human IgG1, kappa)
# heavy: B3 heavy with L5V, A10E, V97T, G242A, A336L
# light: B1 light
# B7: Antibody A-4 (antibody, human IgG1, kappa)
# heavy: B3 heavy with G242A
# light: B3 light
# B8: 1.32.36-1 (antibody, human IgG1, kappa)
# heavy: B3 heavy with L5V, A10E, S105T, G242A, A336L
# light: B1 light
# B9: Antibody A-5 (antibody, human IgG1, kappa)
# heavy: B3 heavy with A336L
# light: B3 light
# B10: 1.33.36-1 (antibody, human IgG1, kappa)
# heavy: B1 heavy with M34I, M70L, S88K, R89A, T105S, Q115S, M118Q
# light: B1 light
# B11: Antibody A-6 (antibody, human IgG1, kappa)
# heavy: B3 heavy with D245S, F249L, R298P, Y306L, V311I, E338I, P402L
# light: B3 light
# How the values were obtained:
# BSA = BSA (UniProt P02769 25-607); assay: single-point ELISA, BSA control
# gp120 Bal = gp120 Bal (HIV (Bal)); assay: single-point ELISA at EC50 conc. of A-1
# gp120 SHIV SF162 P3 = gp120 SHIV SF162 P3 (SHIV SF162 P3); assay: single-point ELISA at EC50 conc. of A-1
# gp120 CAAN = gp120 CAAN (HIV (CAAN)); assay: single-point ELISA at EC50 conc. of A-1
# [1] = molecular target: HIV-1 envelope glycoprotein gp120 of viral isolate 92US712 (HIV-1); assay: cell-based or functional assay
# [2] = molecular target: HIV-1 envelope glycoprotein gp120 of viral isolate 92US657 (HIV-1); assay: cell-based or functional assay
Binder,ELISA A450 (BSA) [A450],ELISA A450 (gp120 Bal) [A450],ELISA A450 (gp120 SHIV SF162 P3) [A450],ELISA A450 (gp120 CAAN) [A450],"ADCC EC50, NK Donor 1 [1] [µg/mL]","ADCC EC50, NK Donor 2 [1] [µg/mL]","ADCC EC50, NK Donor 3 [1] [µg/mL]","ADCC Emax, NK Donor 1 [1] [%]","ADCC Emax, NK Donor 2 [1] [%]","ADCC Emax, NK Donor 3 [1] [%]","ADCC EC50, NK Donor 1 [2] [µg/mL]","ADCC EC50, NK Donor 2 [2] [µg/mL]","ADCC EC50, NK Donor 3 [2] [µg/mL]","ADCC Emax, NK Donor 1 [2] [%]","ADCC Emax, NK Donor 2 [2] [%]","ADCC Emax, NK Donor 3 [2] [%]"
B1,0.06,0.85,0.56,0.67,,,,,,,,,,,,
B2,0.06,1.12,0.14,0.34,,,,,,,,,,,,
B3,,,,,0.07,0.08,0.2,77,59,67,0.68,0.67,1.39,49,49,56
B4,0.07,0.94,0.77,0.71,,,,,,,,,,,,
B5,,,,,0.18,0.08,0.2,76,60,60,0.54,0.81,1.13,59,51,56
B6,0.06,1.06,0.93,0.9,,,,,,,,,,,,
B7,,,,,0.2,0.13,0.4,78,61,64,0.6,1.21,1.64,52,53,50
B8,0.06,0.92,0.62,0.64,,,,,,,,,,,,
B9,,,,,0.19,0.08,0.09,79,61,66,0.57,0.83,0.76,58,61,61
B10,0.06,0.94,0.88,0.82,,,,,,,,,,,,
B11,,,,,0.27,0.54,0.18,68,54,51,3.93,1.21,3.21,54,53,52
